Test results reported in patent US9345662B2, “Degradable hydrogel compositions and methods” (RUTGERS, THE STATE UNIVERSITY OF NEW JERSEY, priority 2008, dated 2016).

Assay: In vitro release (cumulative cleavage) from PEG-Glu-Lys conjugates in PBS (fluorescamine assay)
Assay type: physicochemical
Protocol: PEG-Glu(NH2)-(α)Lys(Z)OMe conjugate (15 mg) was dissolved in PBS (15 ml) and incubated at 37° C. Aliquots (50 μL) were taken at regular time intervals and the sample aliquots were dried using a CentriVap (Labconco Corporation, Kansas City, Mo.). The cumulative cleavage (%) of Lys(Z)OMe from PEG-Glu(NH2)-(α)Lys(Z)OMe conjugate was measured using fluorescamine assay^24.
PEG-Glu(NH2)-(ε)Lys(Z)OMe conjugates (15 mg) was dissolved in PBS (15 ml) and incubated at […] Aliquots (50 μL) were taken at regular time intervals and the sample aliquots were dried using a CentriVap (Labconco Corporation, Kansas City, Mo.). The cumulative cleavage (%) of Z-LysOMe from PEG-Glu(NH2)-(ε)Lys(Z)OMe conjugate was measured using fluorescamine assay^24.

Row | Substance | Z-LysOMe released from conjugate (7° C., at the time under E15) [%] | time of Z-LysOMe release from conjugate (7° C., extent under E14) [h] | release (cumulative cleavage) of Lys(Z)OMe from conjugate (37° C., at the time under E13) [%] | time of Lys(Z)OMe release from conjugate (37° C., extent under E12) [h]
1 | PEG-Glu(NH2)-(ε)Lys(Z)OMe [PEG-Glu(NH2)-(ε)Lys(Z)OMe conjugate] | 99 | ~29 |  | 
2 | PEG-Glu(NH2)-(α)Lys(Z)OMe [PEG-Glu(NH2)-(α)Lys(Z)OMe conjugate] |  |  | ~99 | 490
